Test results: paper PMC6322571, “CARK1 phosphorylates subfamily III members of ABA receptors” (Journal of Experimental Botany, 2018)

T1: His-CARK1-KD (CARK1 kinase domain, residues 50-353) (Arabidopsis thaliana, UniProt Q9LUT0 50-353)
T1 construct: Cytosolic ABA Receptor Kinase 1 (CARK1), Arabidopsis, kinase domain, residues 50-353; also called Cytosolic ABA Receptor Kinase 1 kinase domain; source: E. coli Rosetta (DE3), purified as previously described (Zhang et al., 2018)
T1 sequence (looked up): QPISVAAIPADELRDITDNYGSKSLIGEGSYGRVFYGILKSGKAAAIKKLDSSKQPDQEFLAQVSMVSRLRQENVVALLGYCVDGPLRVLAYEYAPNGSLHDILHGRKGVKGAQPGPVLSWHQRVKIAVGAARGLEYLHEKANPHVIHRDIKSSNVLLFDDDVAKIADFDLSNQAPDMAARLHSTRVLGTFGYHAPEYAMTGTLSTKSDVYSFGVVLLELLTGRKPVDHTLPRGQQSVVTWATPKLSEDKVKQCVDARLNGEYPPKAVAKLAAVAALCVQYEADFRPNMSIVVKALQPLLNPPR

B1: GST-RCAR12 (receptor, Arabidopsis thaliana, UniProt Q8VZS8 1-221, looked up)
chain: MANSESSSSPVNEEENSQRISTLHHQTMPSDLTQDEFTQLSQSIAEFHTYQLGNGRCSSLLAQRIHAPPETVWSVVRRFDRPQIYKHFIKSCNVSEDFEMRVGCTRDVNVISGLPANTSRERLDLLDDDRRVTGFSITGGEHRLRNYKSVTTVHRFEKEEEEERIWTVVLESYVVDVPEGNSEEDTRLFADTVIRLNLQKLASITEAMNRNNNNNNSSQVR
notes: ABA receptor RCAR12 (PYL1), Arabidopsis, subfamily III; also called PYL1; source: E. coli Rosetta (DE3), purified as GST-tag protein; not shown: GST, N-terminal, kept
B2: GST-RCAR13 (receptor, Arabidopsis thaliana, UniProt Q9SSM7 1-209, looked up)
chain: MNLAPIHDPSSSSTTTTSSSTPYGLTKDEFSTLDSIIRTHHTFPRSPNTCTSLIAHRVDAPAHAIWRFVRDFANPNKYKHFIKSCTIRVNGNGIKEIKVGTIREVSVVSGLPASTSVEILEVLDEEKRILSFRVLGGEHRLNNYRSVTSVNEFVVLEKDKKKRVYSVVLESYIVDIPQGNTEEDTRMFVDTVVKSNLQNLAVISTASPT
notes: ABA receptor RCAR13, Arabidopsis, subfamily III; source: E. coli Rosetta (DE3), purified as GST-tag protein; not shown: GST, N-terminal, kept
B3: GST-RCAR14 (receptor, Arabidopsis thaliana, UniProt O80992 1-190, looked up)
chain: MSSSPAVKGLTDEEQKTLEPVIKTYHQFEPDPTTCTSLITQRIHAPASVVWPLIRRFDNPERYKHFVKRCRLISGDGDVGSVREVTVISGLPASTSTERLEFVDDDHRVLSFRVVGGEHRLKNYKSVTSVNEFLNQDSGKVYTVVLESYTVDIPEGNTEEDTKMFVDTVVKLNLQKLGVAATSAPMHDDE
notes: ABA receptor RCAR14, Arabidopsis, subfamily III; source: E. coli Rosetta (DE3), purified as GST-tag protein; not shown: GST, N-terminal, kept

The binders below were run against T1, His-CARK1-KD (CARK1 kinase domain, …) (assay: pull-down; GST-RCARs bound to glutathione Sepharose 4B resin; His-CARK1-KD or His-CARK1-KD^N204A co-incubated 1 h at room temperature; 50 ug of each protein; SDS-PAGE and anti-His blot). Details: both partners purified.

binding result | Binder
binds | B1
binds | B2
binds | B3
